This test has as its target T1, fibronectin type III domains 1-5 of human tenascin-C (human, UniProt P24821 625-1075).
T1 construct: range 625-1075; Expressed in HEK293 cells, purified on Streptactin XT; coated on the ELISA plate; also called TN1-5
T1 sequence (looked up): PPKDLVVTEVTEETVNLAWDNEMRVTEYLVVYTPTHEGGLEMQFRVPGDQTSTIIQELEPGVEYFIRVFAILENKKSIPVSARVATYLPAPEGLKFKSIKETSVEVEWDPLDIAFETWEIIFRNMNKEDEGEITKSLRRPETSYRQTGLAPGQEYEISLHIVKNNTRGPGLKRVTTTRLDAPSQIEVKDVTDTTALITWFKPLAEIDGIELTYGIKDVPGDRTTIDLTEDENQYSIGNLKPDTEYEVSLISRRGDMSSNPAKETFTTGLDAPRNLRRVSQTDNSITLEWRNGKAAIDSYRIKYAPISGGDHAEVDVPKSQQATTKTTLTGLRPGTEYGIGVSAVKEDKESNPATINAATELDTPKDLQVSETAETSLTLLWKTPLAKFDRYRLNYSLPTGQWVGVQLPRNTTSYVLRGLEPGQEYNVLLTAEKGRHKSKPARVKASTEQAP
The experiment in a line: ELISA, TN1-5 coated, biotinylated FN4-6 titrated 1 nM to 1 µM. (In an ELISA, binding on a coated surface is turned into a signal by an enzyme label.)

B1: fibronectin type III domains 4-6 of human fibronectin (double Strep-tagged) (other, UniProt P02751 909-1175, looked up, not shown: small tags and cut ends)
chain: SPRDLQFVEVTDVKVTIMWTPPESAVTGYRVDVIPVNLPGEHGQRLPISRNTFAEVTGLSPGVTYYFKVFAVSHGRESKPLTAQQTTKLDAPTNLQFVNETDSTVLVRWTPPRAQITGYRLTVGLTRRGQPRQYNVGPSVSKYPLRNLQPASEYTVSLVAIKGNQESPKATGVFTTLQPGSSIPPYNTEVTETTIVITWTPAPRIGFKLGVRPSQGGEAPREVTSDSGSIVVSGLTPGVEYVYTIQVLRDGQERDAPIVNKVVTPLS
notes: range 909-1175; Biotinylated with Biotin-Ahx-NHS for the ELISA on TN1-5; also called FN4-6
With B1, the Kd (commonly the constant that tells how readily two partners part at equilibrium) was determined as 44 nM.

(Values after patent publication EP3912994A1 (Université de Strasbourg, dated 2021).)
